{"source": "patent US20110005523A1", "about": "“Pharmaceutical Polypeptide Dry Powder Aerosol Formulation and Method of Preparation” (published 2011)", "binders": {"B1": {"name": "human interleukin-4 mutein met-R121D/Y124D (ligand)", "chain": "MHKCDITLQEIIKTLNSLTEQKTLCTELTVTDIFAASKNTTEKETFCRAATVLRQFYSHHEKDTRCLGATAQQFHRHKQLIRFLKRLDRNLWGLAGLNSCPVKEANQSTLENFLERLKTIMDEKDSKCSS"}}, "key": {"[1]": {"molecular_target": "T1, IL-4 receptor (Homo sapiens (Human), UniProt P24394)", "test": "cell-based or functional assay"}, "[2]": {"molecular_target": "T1, IL-4 receptor", "test": "cell-based or functional assay", "remark": "listed apart in the source"}}, "note": "Values joined by “and” are separate entries in the source; they are usually repeats but may differ in a detail not shown here. Identical values can stand only once."}
{"binder": "B1", "values": [{"measurement": "Functionality by Bioassay (specific activity), EC 50 (nM); stability batch, 1 month (5° C.)", "setting": "[1]", "value": "0.178 nM and 0.138 nM"}, {"measurement": "Functionality by Bioassay (specific activity), EC 50 (nM); stability batch, 1 month (30° C./65%)", "setting": "[1]", "value": "0.191 nM and 0.184 nM"}, {"measurement": "Functionality by Bioassay (specific activity), EC 50 (nM); stability batch, 3 month (5° C.)", "setting": "[1]", "value": 0.302, "unit": "nM"}, {"measurement": "Functionality by Bioassay (specific activity), EC 50 (nM); stability batch, 3 month (30° C./65%)", "setting": "[1]", "value": 0.3, "unit": "nM"}, {"measurement": "Functionality by Bioassay (specific activity), EC 50 (nM); stability batch, T0", "setting": "[1]", "value": "0.246 nM and 0.263 nM"}, {"measurement": "Functionality by Bioassay, Standard EC 50 (nM); reference standard", "setting": "[1]", "value": "0.264 nM and 0.194 nM and 0.305 nM"}, {"measurement": "Mean EC50, nM (TF1 bioassay; 1-Spray Dry Powder)", "setting": "[2]", "value": 0.496, "unit": "nM"}, {"measurement": "Mean EC50, nM (TF1 bioassay; 2-Spray Dry Powder)", "setting": "[2]", "value": 0.518, "unit": "nM"}, {"measurement": "Mean EC50, nM (TF1 bioassay; 3-Spray Dry Powder)", "setting": "[2]", "value": 0.577, "unit": "nM"}, {"measurement": "Mean EC50, nM (TF1 bioassay; 4-Spray Dry Powder)", "setting": "[2]", "value": 0.555, "unit": "nM"}, {"measurement": "Mean EC50, nM (TF1 bioassay; mIL-4 Standard)", "setting": "[2]", "value": 0.524, "unit": "nM"}]}
